For assay [1], the target named is T1, soluble human FcRn (human, UniProt P55899 24-297; P61769 21-119, biotinylated (Sulfo-NHS-LC-Biotin) in the ELISA; amine-coupled to CM5 chip in SPR).
T1 construct: also called shFcRn; biotinylated shFcRn
The experiment in a line: SPR, pH 6. (In general: Surface plasmon resonance follows binding to a sensor surface in real time, without labels.)
Description: (§1) The following steps were performed to cross-link soluble human or cynomolgus FcRn to the dextran surface of a CM5 sensor chip (Biacore AB, Uppsala, Sweden) by an amine coupling reaction involving 1-ethyl-(3-dimethylaminopropyl)-carbodiimide hydrochloride (EDC) (Biacore AB, Uppsala, Sweden) and N-hydroxysuccinimide (NHS) (Biacore AB, Uppsala, Sweden) as recommended by Biacore (BIAapplications Handbook, version AB, section 4.2, Biacore AB, Uppsala, Sweden). […] Residual sites on the FcRn flow cell were blocked with 1 M ethanolamine hydrochloride pH 8.5 (Biacore AB, Uppsala, Sweden). A control flow cell was blocked with ethanolamine for reference subtraction. For analysis of the monomeric peptides, FcRn was coated to a final density of 4000-5000 response units (RU). For analysis of the peptide dimers, FcRn was coated to a density of 2000-2500 RU. All SPR measurements were performed using a BIACORE 3000 Instrument (Biacore AB Uppsala, Sweden). For measurements done at either pH 6 or pH 7.4, experiments were performed in 50 mM phosphate, 100 mM sodium chloride, 0.01% surfactant P20 (Biacore AB, Uppsala, Sweden).
(§2) Ten, 2-fold dilutions of the peptide were injected over the FcRn-CM5 chip at a rate of 20 μl/min for 2 min. The peptide was dissociated from the chip for 2.5 minutes with buffer. Any remaining peptide was removed from the chip with a 30 second injection of HBS-P buffer (Biacore AB, Uppsala, Sweden) at a rate of 30 μl/min. Sensorgrams were generated and analyzed using BiaEval software version 3.1 (Biacore AB, Uppsala, Sweden). The equilibrium RU observed for each injection was plotted against concentration. The equilibrium KD values were derived by analysis of the plots using the steady state affinity model included in the BiaEval software.

For assay [2], the target named is T1, soluble human FcRn. Put plainly: SPR, pH 7.4.
Description: as §1, §2
For assay [3], the target named is T1, soluble human FcRn. Put plainly: SPR, pH 6. This is another data set of the same source.
Description: as §1, §2
Assay [4] concerns the target T1, soluble human FcRn. The experiment in a line: ELISA, competitor human IgG.
Description: (§3) The wells were coated with 100 μl/well of 1 μg/ml biotinylated-shFcRn in Buffer A. The plate was sealed and incubated at 37° C. for 2 hours. Afterwards, the plate washed with 200 μl/well of Buffer B (Buffer B: 100 mM MES pH 6, 150 mM NaCl, 0.5% BSA IgG-free (Jackson ImmunoResearch, West Grove, Pa.), 0.05% Tween-20). […] To allow for mixing, the plate was rocked for 2 minutes, sealed and incubated at 37° C. for 2 hours. […] The plate was covered, incubated for 30 minutes at room temperature and washed 4 times with 200 μl/well of ice-cold buffer B. SureBlue TMB substrate solution (100 μl/well, KPL, Gaithersburg, Md.) was added and the plate was allowed to incubate at room temperature until color developed, which took 5 to 10 minutes. Once color developed, 100 μl/well of TMB stop solution (KPL, Gaithersburg, Md.) was added and the absorbance was measured at 450 nm. The data was plotted as absorbance vs. peptide concentration to derive the inhibitory concentration 50% (IC₅₀) values.
Assay [5] concerns the target T1, soluble human FcRn. Put plainly: ELISA, competitor human IgG. This is another data set of the same source. A general note: An ELISA detects its analyte on a solid surface through an enzyme-linked reagent.
Description: as §3
The target of assay [6] is T1, soluble human FcRn. Put plainly: SPR, pH 7.4. This is another data set of the same source.
Description: as §1, §2
For assay [7], the target named is T1, soluble human FcRn. Put plainly: SPR, pH 6. This is another data set of the same source.
Description: as §1, §2
Assay [8] addresses T1, soluble human FcRn. The experiment in a line: ELISA, competitor human IgG. The source holds these as a separate data set.
Description: as §3
The target of assay [9] is T1, soluble human FcRn. Put plainly: SPR, pH 7.4. This is another data set of the same source.
Description: as §1, §2
Assay [10] deals with T1, soluble human FcRn. Put plainly: SPR, pH 6. The source holds these as a separate data set.
In assay [11] the target is T1, soluble human FcRn. The experiment in a line: ELISA, competitor human IgG. This is another data set of the same source.
For assay [12], the target named is T1, soluble human FcRn. The experiment in a line: SPR, pH 6. This is another data set of the same source.
Assay [13] has as its target T1, soluble human FcRn. Put plainly: SPR, pH 7.4. This is another data set of the same source.
Description: as §1, §2
For assay [14], the target named is T1, soluble human FcRn. The experiment in a line: ELISA, competitor human IgG. This is another data set of the same source.
Description: as §3

Read-outs that look alike come from different tables or passages of the source. Numbered stars: 1 amine (or outer) side, 2 acyl side, 3 side chain; on linkers, the order of the positions; unused ones are H or OH. Bridge positions count the residues as written; N and C are the ends. Square brackets hold non-standard residues; d marks the D form. Ends that are not written are not given here. X3 = 3(S)‑3‑amino‑2‑oxo‑1‑azepine acetic acid, O=C1[C@@H](N[*:1])CCCCN1CC(=O)[*:2]; 3‑amino‑2‑oxo‑1‑piperidine‑acetic acid = dipeptide mimetic in place of Gly-Gly; 6,5‑bicyclic dipeptide mimic = not defined here; Pen = CC(C)(S)[C@H](N)C(=O)O; Sar = CNCC(=O)O Some results are limits rather than exact numbers.

T1 sequence (P55899 24-297 limits assumed, chain 1 of 2): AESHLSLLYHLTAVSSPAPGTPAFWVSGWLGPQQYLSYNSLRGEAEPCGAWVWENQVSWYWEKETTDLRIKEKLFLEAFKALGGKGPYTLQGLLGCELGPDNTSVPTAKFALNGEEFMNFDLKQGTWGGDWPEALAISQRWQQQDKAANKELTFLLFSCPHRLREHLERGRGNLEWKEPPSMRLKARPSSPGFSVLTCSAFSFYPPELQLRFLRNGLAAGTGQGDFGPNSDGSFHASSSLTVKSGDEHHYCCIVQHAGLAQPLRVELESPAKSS
T1 sequence (P61769 21-119 limits assumed, chain 2 of 2): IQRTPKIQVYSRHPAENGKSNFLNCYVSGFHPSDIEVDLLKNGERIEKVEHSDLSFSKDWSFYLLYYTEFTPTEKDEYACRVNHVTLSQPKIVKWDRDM

With AGGGCVTGHFGGIYCNTQGTGGGK-NH2 (disulfide 5-15 (inferred)) [SEQ ID NO:7], the Kd (usually the concentration at which binding is half-saturated) with soluble human FcRn [1] amounted to 5.2 µM; in the assay with soluble human FcRn [2] it was 34.7 µM.

In the case of AGQRFCTGHFGGLYPCNGPGTGGGK-NH2 (disulfide 6-16 (inferred)) [SEQ ID NO:6], the Kd in the assay with soluble human FcRn [1] stood at 5.7 µM; with soluble human FcRn [3], 5.7 µM; with soluble human FcRn [2], 45 µM; with soluble human FcRn [6], 45 µM. Besides, the IC50 in the assay with soluble human FcRn [4] and in the assay with soluble human FcRn [5] was 36 µM throughout.

Regarding QRFVTGHF[3‑amino‑2‑oxo‑1‑piperidine‑acetic acid]WYPINGP-NH2 (also: further groups not given here) [Peptide No. 191], in the assay with soluble human FcRn [7], binding was put at a Kd of 333 µM.

RFVTGHF[6,5‑bicyclic dipeptide mimic]LYPA-NH2 (reading uncertain) [Peptide No. 207] came in with a Kd in the assay with soluble human FcRn [7] of 20 µM. The IC50 (commonly the concentration needed to halve the response being measured) in the assay with soluble human FcRn [8] was greater than 125 µM.

B1: Peptide No. 185 (peptide)
peptide: RFVTGHFXLYPA
modifications: X at 8 = 3-amino-N-1-carboxymethyl-2,3,4,5-tetrahydro-1H-[1]-benzazepine-2-one (drawing CHEM-US-00097); linear; C-terminal amide
The molecule B1 returned a dissociation constant Kd with soluble human FcRn [7] of 3.1 µM. Moreover, the concentration for half-maximal inhibition (IC50) in the assay with soluble human FcRn [8] amounted to 57 µM.

In the case of QRFCTGHFGGAYPCNGP-NH2 (disulfide 4-14 (inferred)) [SEQ ID NO:33], the Kd came to 81 µM in the assay with soluble human FcRn [9] and 26 µM with soluble human FcRn [10]. The same molecule had an IC50 in the assay with soluble human FcRn [11] of 107 µM.

AGKIICSPGHFGGMYCQGKGTGGGK-NH2 (disulfide 6-16 (inferred)) [SEQ ID NO:8] returned a Kd with soluble human FcRn [1] of 22 µM. Also, the IC50 with soluble human FcRn [5] amounted to 64 µM.

As for RFXTGHFGGLYPCNGP (Pen at 3; NMeLeu at 10; disulfide; C-terminal amide) [Peptide No. 146], the dissociation constant Kd with soluble human FcRn [12] was 0.059 µM; with soluble human FcRn [13], 0.28 µM. The same molecule displayed an IC50 in the assay with soluble human FcRn [14] of 2.1 µM.

With AGPSYCIEGHIDGIYCFNAGTGGGK-NH2 (disulfide 6-16 (inferred)) [SEQ ID NO:9], the dissociation constant (Kd) with soluble human FcRn [1] is 8.8 µM; with soluble human FcRn [2] it was 76 µM. The half-inhibitory concentration (IC50) in the assay with soluble human FcRn [5] is 49 µM.

B2: Peptide No. 208 (peptide)
peptide: RFVTGHF[X3]LYPA-NH2
modifications: N-terminus assumed
SMILES: CC(C)C[C@H](NC(=O)CN1CCCC[C@H](NC(=O)[C@H](Cc2ccccc2)NC(=O)[C@H](Cc2c[nH]cn2)NC(=O)CNC(=O)[C@@H](NC(=O)[C@@H](NC(=O)[C@H](Cc2ccccc2)NC(=O)[C@@H](N)CCCNC(=N)N)C(C)C)[C@@H](C)O)C1=O)C(=O)N[C@@H](Cc1ccc(O)cc1)C(=O)N1CCC[C@H]1C(=O)N[C@@H](C)C(N)=O
B2 gave an equilibrium dissociation constant (Kd) with soluble human FcRn [7] of 2.3 µM. The molecule also registered a half-maximal inhibitory concentration (IC50) with soluble human FcRn [8] of 23 µM.

Take RF[Pen]TGHFG[Sar]YPCNGP-NH2 (disulfide 3-12 (inferred), printed without the Leu after Sar) [Peptide No. 147]: the equilibrium dissociation constant (Kd) in the assay with soluble human FcRn [12] was determined as 0.058 µM; with soluble human FcRn [13] it was 0.35 µM. Also, the IC50 in the assay with soluble human FcRn [14] came out at 1 µM.

The record behind these values is US20070254831A1 (published 2007).
